Results published in paper PMC12377726 (Proceedings of the National Academy of Sciences of the …, 2025).

B1: G001_LD_07A_VRC01c_58 (antibody, V domains shown)
VH: QVQLVQSGAEVRKPGASVKVSCKASGYTFTDYYIHWVRQAPGQGLEWMGWINPNSGGTNYAQKFQGWVTMTRDTSISTAHMELRRLRSDDRAVYYCARGVVHSGFEFGYWGQGTLVTVSS
VL: DIQMTQSPSTLSASVGDRVTITCRASQSISNWLAWYQQKPGKAPKLLIYKASSLESGVPSRFSGSGSGTEFTLTISSLQPDDFATYYCQQYETFGQGTKVEIK
notes: also called G001-58
B2: G001_LD_07A_VRC01c_59 (antibody, V domains shown)
VH: QVQLVQSGAEVKKPGTSVKVSCKASEYTFTGYYVHWVRQAPGQGLEWMGWINPNSGGTNYAQKFQGWVTMTRDTSISTAYMELSRLKSDDTAVYYCARSDYISSWYFGYWGQGTLVTVSS
VL: EIVMTQSPATLSVSPGERATLSCRASQSVSSNLAWYQQKPGQAPRLLIYGTSTRATGIPARFSGSGSGTEFTLTISSLQSEDFAVYYCQQYETFGQGTKVEIK
notes: also called G001-59
B3: G001_gp1_V10_VRC01c_2021-0087 (antibody, V domains shown)
VH: QVQLVQSGAEVKKPGASVKVSCKASGYTFTGNYIHWVRQAPGQGLEWVGWLNPNSGGTNYAQQFQGRVTMTRDTSISTAYMELNRLRSDDTAVFYCARGLWQWEFRYWGQGTLVTVSS
VL: DIVLTQSPGTLSLSPGERATLSCRASQSVSSSNLAWYQQKPGQAPRLLIYGASSRATGIPDRFSGSGSGTDFTLTISRLEPEDCAVYYCQQYEGFGGGTKVEIK
notes: also called G001-0087
B4: G001_gp1_V10_VRC01c_179 (antibody, V domains shown)
VH: QVQLVQSGADVKKPGASVKVSCKASGYTFTDYYMHWVRQAPGQGLEWMGWINPNSGGTNYAQKFQDRVTMTRDTSVSTAYMEVSGLRSDDTAVYYCARIKLCNGGSCNWSLGYWGQGSLVTVSS
VL: DIQMTQSPSSLSASVGDRVTITCQASQDISNYLNWYQQKPGKAPKLLIYGASNLETGVPSRFSGSGSGTDFTFTISSLQPEDIATYYCQQYEFFGPGTKVDIK
notes: also called G001-179
B5: G001_gp1_V10_VRC01c_2021-0134 (antibody, V domains shown)
VH: QVQLVQSGAEVKKPGASVKVSCEASGYTFTGSYMHWVRQAPGQGLEWMGWINPNSGGTNYAQKFQGRVTMTRDTSITTAYMELSRLRSDDTAVYYCATRAAATNWYFDLWGRGTLVTVSS
VL: DIQMTQSPSSLSASVGDRVTITCQASQDINNHLNWYQQKPGKALKLLIYDASNLQTGVPSRFSGSGSGTDFTFTISSLQPEDIATYYCQQYEFFGGGTKVEIG
B6: G001_gp1_V10_VRC01c_2021-0135 (antibody, V domains shown)
VH: QVQLVQSGAEVKKPGASVKVSCKASGYTFTDYYMHWVRQAPGQGLEWMGWINPSSGGTNYAQKFQDWVTMTRDTSISTAYMELSRLRSDDTAVYYCATVAPAAATWGFDSWGQGTLVTVSS
VL: DIQTTQSPSSLSASVGDRVTITCQASQDISNHLNWYQQKPGKGPKLLIYDASNLKTGVPSRFSGSGSGTDFTFIISSLQPEDIATYYCQQYEFFGPGTKVDIK
B7: G001_gp1_V10_VRC01c_2021-0131 (antibody, V domains shown)
VH: QVQLVQSGAEVKKPGASVKVSCEASGYTFTDYYIHWVRQAPGQGLEWMGWINPSSGGTNYAQKFQGWVTMTRDTSISTAYMELSRLTSDDTAFYYCARGLGRQWEWGYWGQGTLVTVSS
VL: DIQMTQSPPSLSASVGDRVTITCQASQDISKYLNWYQQKAGKAPKLLIYDVSNLETGVPSRFSGSGSGTDFTFTISSLQPEDIATYYCQQYEFFGQGTRLEIK
B8: G001_gp1_V10_VRC01c_2021-0137 (antibody, V domains shown)
VH: QVQLVQSGAEVKKPGASVKVSCKASGYTFTGYYMYWVRQAPGQGFEWMGWLNPNSGGTNYAQKFQGRVTMTRDTSISTAYMELSRLRSDDTAVYYCARVTSGSGWAFDYWGQGTLVTVSS
VL: DIQMTQSPSSLSASVGDRVTITCQASQDISNNLNWYQQKPGKAPKLLIYDVSNLETGVPSRFSGSGSGTDFTFTISSLQPEDIATYYCQQYGTFGGGTKVEIK
B9: G001_gp1_V10_VRC01c_2021-0136 (antibody, V domains shown)
VH: QVQLVQSGAEVKKPGASVKVSCTASGYTFTGYYMHWVRQAPGQGLEWMGWINPNSGGTNYAQKFQGWVTMTRDTSINTAYMELSRLRSDDTAVYYCARARSGYSSGWYWAYWGQGTLVTVSS
VL: DIQMTQSPSSLSASVGDRVTITCQASQDISNHLNWYQQKPGKAPKLLIYDASNLETGVPSRFSGSGSGTDFTFTISSLQPEDIATYYCQQYEFFGGGTKVEIT
B10: G001_gp1_V10_VRC01c_2021-0132 (antibody, V domains shown)
VH: QVQLVQSGAEVKKPGASVKVSCQASGYTFTAYHMHWVRQAPGQGLEWMGWINPTSGGTNYAQKFQGRVTMTRDTSITTAYMDLTRLRSDDTAVYYCARHRGGWFFDLWGRGTLVTVSS
VL: DIQMTQSPSSLSASVGDRVTITCQASQDISNYLNWYQQKPGKAPNLLIYDASNLEAGVPSRFSGSGSGTDFTFTISSLQPEDIATYYCQQYETFGQGTKLEIR
B11: G001_gp1_V10_VRC01c_2021-0133 (antibody, V domains shown)
VH: QVQLVQSGPEVKKPGASVKVSCTASGFSFTGYYIHWLRQAPGPGLEWMGWINPNSGGTNYAQIFQDRVTMTRDTSISTAYMELSRLRSDDTAVYYCARVSVTTVWYFDLWGRGTLVTVSS
VL: DIQMTQSPSSLSASVGDRVTITCQASQDISNYLNWYQQKPGKAPKLLIYDVFNLETGVPSRFSGSGSGTDFTFTISSLQPEDIATYYCQQYETFGGGTKVEIK

target: eOD-GT8 (engineered outer domain germline-targeting version 8), monomer (HIV-1 gp120 engineered outer domain, …); assay: SPR; details: both partners purified

Binder | Kd [nM]
B1 | 0.437
B2 | 1.76
B3 | 0.15
B4 | 0.13

target: eOD-GT8 (engineered outer domain germline-targeting version 8), monomer (HIV-1 gp120 engineered outer domain, …); assay: not given; details: not given

Binder | binding result
B5 | binds
B6 | binds
B7 | binds
B8 | binds
B9 | binds
B10 | binds
B11 | binds
